# Data reported in the nanobody polyreactivity screen of Harvey et al. (2022).
# Experiment: yeast display, Sf9 membrane polyspecificity reagent, FACS + sequencing; frameworks hold sequencing errors
# Summary of the method: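 Sorting gates, low and high (top ~1%), were placed on anti-HA fluorescence to track expression and on streptavidin fluorescence to track reagent binding. A clone's polyreactivity label is taken from the gate it came out of. The reagent was 10% biotinylated, detergent-solubilized Sf9 membrane, applied for 1 hour at 4 °C to galactose-induced yeast display cells.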
row,Sequence,polyreactivity (PSR sort gate)
1,QVQLVESWGGLVQAGGSLRLSCAASGRIFSYYAMGWYRQAPGKERELVAAISRTGGTTYYADSVKGRFTISRDNAKNTVYLQMNSLKPEDTAVYYCNAVKAPYLRYDYWGQGTQVTVSS,high polyreactivity
2,QVQLVESGGGLVQAGGRLRLSCAASGIIFAWYAMGWSRQAPGKERELVAAITSGGSTYYADSVKGRFTISRDNAKNTVYLQMNSLKPDDTAVYYCAASDASTGYLGRHYYWGPGTQVTVSS,high polyreactivity
3,QVQLVESGGGLVQAGGSLRLSCAASGITFYVYAMGWYRQAPGKERELVAAISSGSSTYYSDSVKGRFTISRDNAKNTVYLQMNSLKPEDTAVYYCAARYRKYLSEYWGQGTQVTVSS,high polyreactivity
4,QVQLVESGGGLVQAGGSLRFSCAASGYTVGDYAMGSYRQAPGKERELVAVITRNGGRTYYADSVKGRFTISRDNAKNTVYLQMNSLKPEDTAVYYCNRDTSIRHYNYWGQGTQVTVSS,high polyreactivity
5,QVQLVESGGGLVQAGGSLRLSCAASGITFTDYAMGWYRQAPGKERELVAAISSSGGRTYYADSVKGRFTISRDNAKNTVYLQMNSLKPEDTAVYYCAARDYDRTQSGRDYWGQGTQVTVSS,high polyreactivity
6,QVQLVESGGGLVQAGGSLRLSCAASGRTFGTYDMGWYRQAPGKERELVAGINGSGGSTYYADSVKGRFTISRDNAKNTVYLQMNSLKPEDTAVYYCAADRRFSTYDYWGQGTQVTVSS,high polyreactivity
7,QVQLVESGGGLVQAGGSLRLSCAASGFIFRDNTMGWYRQAPGKEREFVAGITKSGGSTYYADSVKGRFTISRDNAKNTVYLQMNSLKPEDTAVYYCAAYVPYTRYDYWGQGTQVTVSS,high polyreactivity
8,QVQLVESGGGLVQAGGSLRLSCAASGRIFAWNAMGWYRQAPGTERELVARIRVSGGRTYYADSVKGRFTISRDNAKNTVYLQMNSLKPEDTAVDYCNAYLRSGSMDYWGQGTQVTVSS,high polyreactivity
9,QVQLVESGGGLVQAGGSLRLSCAASGRIFRYYAMGWYRQAPGKERELVAGISRSGGRTYYADSVKGRFTISRDNAKNTVYLQMNSLKPEDTAVYYCNASRGYPYHYDYWGQGTQVTVSS,high polyreactivity
10,QVQLVESGGGLVQAGGSLRLSCAASGRTFSGYAMGWYRQAPGKERELVAAIRWSGGSTYYADSVKGRFTISRDNAKNTVYLQMNSLKPEDTAVYYCATRDYYYRYGYWGQGTQVTVSS,high polyreactivity
11,QVQLVESGGGLVQAGGSLRLSCAASGNTFYPNAMGWYRKAPGKERELVAAISSSGGSTYYADSVKGRFTISRDNAKNTVYLQMNSLKPEDTAVYYRAAEFDYPWSGEYYYWGQGTQVTVSS,high polyreactivity
12,QVQLVESGGGLVQAGGSLRLSCAASGFTIYRYAMGWYRQAPGKERELVAAISSIGGSTYYADSVKGRFTISRDNSKNTVYLQMNSLKPEDTAVYYCAAAISLYSYDYWGQGTQVTVSS,low polyreactivity
13,QVQLVESGGGLVQAGGSLRLSCAASGRILTRNALGWYRQAPGKERELVAAISTSGGRTYYADSVKGRFTISRDNAKNTVYLEMNSLKPEDTAVYYCAAYSASYGGYDYWGQGTQVTVSS,high polyreactivity
14,QVQLVESGGGLVQAGGSLSLSCAASGSILAVYTMGWYRQAPGTVRELVAAITVSSGRTYYADSVKGRFTISRDNAKNTVYLQMNSLKPEDTSVYYCAALYWRSKLRPYEYWGQGTQVTVSS,high polyreactivity
15,QVQLVESGGGLVQAGGSLRLSCAASGNIFDSNAMGWYRQAPGKERELVAAITWSGGSTYYADSVKGRFTISRDNAKNTVYLQMNSLKPEDTAVYYCNRYIRYYAWFGYWGQGTQVTVSS,high polyreactivity
16,QVQLVESGGGLVHAGGSLRLSCAASGLTFAYNTMGWYRQAPGKEREFVASISSSGGNTYYADSVKGRFTISRDNAKNTVYVQMNSLKPEDTAVYFCAAKKKYHYVASYKRFEYWGQGTQVTVSS,low polyreactivity
17,QVQLVESGGGLVQAGGSLRLSCAASGRTFRSYAMGWYRQAPGKERELVAAISSGTSTDYADSVKGRFTISRDNAKNTVYLQMNSLKPEDTAVYYCAYDYWGQGTQVTVSS,low polyreactivity
18,QVQLQESGGGLVQAGGSLRLSCEASGTIFKYYTMGWYRQAPGKEREFVAGINVGSTTNYADIVKGRFTISRDNAKNTVYLQMNSLKPEDTAVYYCAAYFIFLYYHDYWGLGTQVTVSS,low polyreactivity
19,QVQLVESGGGLVQAGGSLRLSCAASGRTFDPYAMGWYRQAPGKERELVASISRGGSTYADSVKGRFTISRDNAKNTVFLQMNSLKPEDTAVYYCNTSLYTEGDAMDYWGQGTQVTVSS,low polyreactivity
20,QVQLVESGGGLVQARGSLRLSCAASGLTFRIYAMGWYRQAPGKERELVAAITRGGSTYADSVKGRFTISRDNAKNTVYLQMNSLKPEDTAVYYCAARVRSTSQVSASPVWYYYWGLGTQVTVSS,high polyreactivity
21,QVQLVESGGGLVQAGGSLRLSCAASGITFSFYTMGWYRQAPGKERELVAAMTQDGGSTYYADSVKGRFTISRDNAKNTVYLQMNSLKPEDTAVYYCASDLVVFVQFDVAVDYYYWGQGTQVTVSS,low polyreactivity

row,Sequence,polyreactivity (PSR sort gate)
1,QVQLVESVGGLVQAGGSLRLSCAASGRRTIRYNAMGWYRQAPGKEREFVASISRSGGSTYYADSVKGRFTISRDNAKNTVYLQMNSLKPEDTAVYYCAAAASHLVAYGWGYEYYYWGQGTQVTVSS,high polyreactivity
2,QVQLVESGGGLVQAGGSLRLSCAASGSIFPSNAMGWYRQAPGKERELVAAISWSGDITYYADSVKGRFTISRDNAKNTVYLQMNSLKPEDTAVYYCAADTPIAGYWYNYWGQGTQVTVSS,low polyreactivity
3,QFQLVESGGGLVQARGSLRLSCAASGITFKEYAMGWYRQAPGTERELVAAISKSGGSTYYADSVKGRFTISRDNAKNTVYLQMTSLKPEDTAVYYCAADYAEYEYGDYYWGQGTQVTVSS,low polyreactivity
4,QVQLVESGGGLVQAGGSLRLSCAASGIIFWYNARGWYRQAPGKERELVASISTGGRTYYADSVKGRFTISRDNAKNTVYLQMNSLKPEDTAVYYCAAASRVGFLYYYWGQGTQVTVSS,low polyreactivity
5,QDQLVESGGGLVQAGGSLRLSCAASGRTFWVYAKGWYRQAPGKERELVAGISWDDGSTYYADSVKGRFTISRDNAKNTVYLQMNSLKPEDTAVYYCAADAYFIFYISYEYWGQGTQVTVSS,low polyreactivity
6,QVQLVESGGGLVQAGGSLRLSCAASGRIFLINAMGWSRQAPGKERELDATISRSGASTDYADSVKGRFTISRDNAKNTVYLQMNSLKPEDTAVYYCNAKVYKRRVVPYDYWGQGTQVTVSS,high polyreactivity
7,QVQLVESGGGLVQAGGSLRLSCAASGFIFWWYAMGWYRQAPGKERELVAGITGSGGTTYYADSVKGRFTISRDNAKNTVYLQMNSLKPEDTAVYYCAARSRSRPKYDYWGQGTQVTVSS,high polyreactivity
8,QVQLVESGGGLVQAGGSLRLSCAASGRIFSYTARGWSRQAPGKERELVAAISGSTGNTYYADSVKGRFTISRDNAKTTLYLQMNSLKPEDTAVYYCNKLGYKYDYWGQGTQVTVSS,high polyreactivity
9,QVQLVESGGGLVQAGGSLRLSCPASGSIFGSYAMGWYRQAPGKERELVASITRVDSTNYADSVKGRFTISRDNAKNTVYLQMNRLKPEDTAVYYCNAGKTIDYRDGVGYDHWGQGTQVTVSS,low polyreactivity
10,QVQLVESGGGLVQAGGSLRLSCAASGRTFVPYAMGWYRQAPGKERELVAAITSSGGSTYYADSVKGRFTISRDNAKNTVYLQMNSLKPEDTAVYYCNALDGTLRTIYDYWGQGTQVTVSS,high polyreactivity
11,QVQLVESGGGLVQAGGSLRLSCAASGRIFRDNAMGGYRQAPGKERELVASISSRTGRTYYADSVKGRFTISRDNAKNTVYLQMNSLKPEDTAVYYCAAAFIYRGPGSLKFDYWGQGTQVTVSS,low polyreactivity
12,QVQLVESGGGLVQAGGSLRLSCDASGFNFASNDMGWYRPAPGKERELVAAITKGGGRTYYADSVKGRFTISRDNAKNTVYLQMNSLKPEDTAVYYCAARQLIKYDYWGQGTQVTVSS,low polyreactivity
13,QVQLEESGGGLVQAGVSLRLSCAASGIIFHFNDMVWYRQAPGKERELLAAIDSTGSTNYADSVKGRFTISRDNAKNTVYLQMNSLKPEDTAVYYCAVLNHRVDSVLTRYYYWGQGTQVTVSS,low polyreactivity
14,QVQLVESGGGLVQAGGSLRLSCAASGSTFSLYDMGWYRQAPGKERELVAAISYSGGSTYYADSVKGRFTISRDNAKNTVYLQMNSLKPEDTAVFYCATRLFYPRFFYWGQGTQVTVSS,high polyreactivity
15,QVQLVESGGGLVQAGGSLRLSCAASGFTFGNNAMGWYRQAPGKERELVAGISRTGGRTYYADSVKGRFTISRDNAKNTVYLQMNSLKPEDTAVYYCNAVSTLYTGYDYWGQGTQVTVSS,high polyreactivity
16,QVHLVESGGGLVQAGGSLRLSCAASGSIFVYNAMGWYRQAPGKERELVAAIDTVGSTNYADSVKGRFTISRDNAKNTVYLQMNSLKPEDTAVYYCAVVTTYWSFYEQVIPSNYWGQGTQVTVSS,low polyreactivity
17,QVQLVESGGGLVQAGCSLRLSCAASGSTIYTYTMGWYRQAPGKERELVAAISSSGGDTYYADSVKGRFTISRDNAKNTVYLQMNSLKPEDTAVYYWDALGAFPSLEFDYWGQGTHVTVSS,low polyreactivity
18,QVQLVESGGGLVQAGGSLRLSCAASGSIFGPYAMGWYRQAPGKERELVATITSGGRTYYADSVKGRFTISRDNAKNTVYFQLNSLKPEDTAVYYCAAAGKGRYHVRSTMDYWGQGTQVTVSS,high polyreactivity
19,QVQLVESGGGLVQAGGSLRLSCAASGFIFKVYAMGWYRQAPGKERELVDAISRSGGSTYYADSVKGRFTISRDHAKNTVYLQMKSLKPEDTAVYYCAADYDVTGDSDYWGQGTQVTVSS,low polyreactivity
20,QVQLQESVDGLVQAGGSLSLSSAASGTIFSDYGMGGYRQAPGKERELLAGISDGCNTNYTDSVKGRCTISRDNAHRVSADEQPETGGYRGVLLRGSERWLLFYVYWGQGTQVTVSS,high polyreactivity
